In patent US20140234868A1, “USE FOR GLYCOLIPOPROTEIN GINTONIN, ISOLATED AND IDENTIFIED FROM GINSENG, AS A NATURAL MEDICAL-PLANT DERIVED LIGAND” (KONKUK UNIVERSITY INDUSTRIAL COOPERATION CORP., priority 2011, published 2014):

T1: LPA3 receptor (Homo sapiens, UniProt Q9UBY5)
T1 construct: host or cells: B103 rat neuroblastoma cells
T1 sequence (Q9UBY5 1-353): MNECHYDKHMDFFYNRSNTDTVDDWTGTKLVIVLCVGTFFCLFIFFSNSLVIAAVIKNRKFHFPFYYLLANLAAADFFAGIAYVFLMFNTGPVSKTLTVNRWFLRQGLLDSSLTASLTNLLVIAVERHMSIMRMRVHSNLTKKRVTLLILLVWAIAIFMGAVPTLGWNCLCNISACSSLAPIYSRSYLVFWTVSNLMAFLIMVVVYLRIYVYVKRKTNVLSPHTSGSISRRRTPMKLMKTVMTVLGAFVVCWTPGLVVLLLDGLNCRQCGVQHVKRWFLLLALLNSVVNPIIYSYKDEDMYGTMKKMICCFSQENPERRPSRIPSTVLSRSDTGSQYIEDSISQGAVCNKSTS


Molecular target: T1, LPA3 receptor
Assay: Intracellular free Ca2+ (Fura-2AM) in LPA3-expressing B103 cells
Format: cell-based
Text: LPA family receptors are endogenous to cells of most organs. B103 rat neuroblastoma cells, known as LPA receptor-null cells (Valentine et al., Biochim Biophys Acta 1780. 597-605) were transiently transfected with a plasmid (vector) carrying one of genes coding for LPA1(edg-2), LPA2(edg-4), LPA3(edg-7), LPA4, LPA5 and LPA6 receptors or a plasmid carrying none of them (empty vector). Two or three days after transfection, the cells are suspended, and made permeable. Then, the permeable cells are treated with Fura-2AM, a fluorescent dye binding to calcium, and then with gintonin, followed by spectrofluorephotometry to examine whether gintonin induces an increase in intracellular free Ca^2+ level.
(1) preparing large quantities of plasmids carrying respective LPA family receptor genes and an empty plasmid carrying none of them through amplification and purification (maxi-preparation); (2) verifying the expression of LPA receptors wherein B103 cells are transfected with haematoglutin (HA)-tagged LPA receptors, and then subjected to Western blotting analysis using an anti-HA primary antibody and a horseradish peroxidase (HRP)-conjugated secondary antibody to develop a color; (3) verifying the expression of LPA receptors wherein B1-3 cells are transfected with haematoglutin (HA)-tagged LPA receptors, and then subjected to confocal laser microscopy using an anti-HA antibody and a fluorescence dye Cy3-conjugated secondary antibody; (4) transfecting the empty plasmid and each of the plasmids carrying LPA family receptor genes into B103 cells; (5) treating the transfected B103 cells with trypsin (0.05% trypsin with EDTA, w/v) 2-3 days post-transfection, to give a cell suspension; (6) culturing the suspended B103 cells with Fura-2AM (2.5 μM); and (7) treating the suspended B103 cells with gintonin and quantifying a change in intracellular free Ca^2+ level in a cuvette by spectrofluorephotometry using Fura-2AM.
Human LPA (lysophosphatidic acid) receptor subtypes, orphan GPCRs (G protein coupled receptors) and plasmids carrying GPCRs were purchased from Missouri S&T resource Center (www.cDNA.org).
The transient transfection of LPA receptor subtypes was carried out with the aid of Lipofectamine 2000 of Invitrogen. A plasmid (10.8 μg) carrying each LPA receptor (LPA1, LPA2, LPA3, LPA4, LPA5, and LPA6) was transfected into B103 cells grown in 10-cm dishes, and incubated for 2 days prior for use in experiments.
In this Example, gintonin, or ginsenoside Rb1 or Rg1 was examined for its ability to induce a transient increase of [Ca^2+]i in Fura-2AM-loaded B103 cells which were transfected with LPA receptors and in Fura-2AM-loaded B103 cells which were not transfected with LPA receptors. To this end, B103 cells (2˜4×10^6/ml) pre-treated with Fura-2AM were suspended in a 1.5 mM Ca^2+-containing buffer or Ca^2+-free buffer, and incubated 37° C. for 30 min, followed by analyzing intracellular calcium levels in the B103 cells in the presence of gintonin or ginsenosides.
Briefly, B103 cells (1˜2×10^6/ml) were mixed with 2.5 μM Fura 2-AM in a Ca^2+ buffer (pH 7.4) containing NaCl 120 mM, KCl 5 mM, MgCl2 1 mM, CaCl2 1.5 mM, glucose 10 mM, and HEPES 25 mM, and a Ca^2+ free buffer (pH 7.4) containing NaCl 120 mM, KCl 5 mM, MgCl2 1 mM, EGTA 0.2 mM, glucose 10 mM, and HEPES 25 mM at 37° C. for 30 min in water bath with shaking according to the Jørgensen method, and washed three times with Ca^2+ buffer or Ca^2+ free buffer to remove excess Fura-2AM.
[Ca^2+]i was estimated in Fura 2AM-loaded cells in suspension using an RF-5300PC intracellular ion measurement system (Shimadzu Corporation, Japan).
Briefly, Fura 2-AM loaded cells were diluted with an experimental medium to a final density of 2˜4×10^6 cells/mL, and transferred to polystyrene cuvettes (Elkay Ultra-VU). The cells were stirred using Teflon-coated magnets, and the cuvette housing was thermostatically controlled at 37° C. The excitation wavelengths were alternated between 340 and 380 nm under computer control. […]

Molecule | effect on gintonin-induced intracellular calcium increase (LPA3-expressing cells treated with antagonist) | transient increase of [Ca2+]i when extracellular Ca2+ was depleted (Ca2+-free buffer containing 0.2 mM EGTA, LPA3-expressing cells) | EC50 (LPA3 receptor, B103 cells, read-out: EC50, LPA receptor-mediated intracellular calcium increase) [nM] | increase in intracellular calcium level (gintonin 1 μg/ml, LPA3-expressing B103 cells) [µM] | increase of intracellular calcium level in co-existence with ginsenosides (gintonin in the presence of ginsenoside Rb1 or Rg1)
Cc1noc(-c2ccc(CSCCC(=O)O)cc2)c1NC(=O)OC(C)c1ccccc1Cl (centres unmarked) [Kil6425] | did not increase in intracellular calcium level even in the presence of gintonin | – | – | – | –
gintonin: ginseng-derived glycolipoprotein; structural protein of ginseng major latex-like protein (MLP151) and ribonuclease-like storage proteins; crude gintonin used in tests (protein) chain 1: MGLTGKLICQTGIKSDGDVFHELFGTRPHHVPNITPANIQGCDLHEGEFGKVGSVVIWNYSIDGNAMIAKEEIVAIDEEDKSVTFKVVEGHLFEEFKSIVFSVHVDTKGEDNLVTWSIDYEKLNESVKDPTSYLDFLLSVTRDIEAHHLPK chain 2: RSDYPWAMFALRLQWPAGFCEVNNACDTKSLLNTFTIHGLYPYNAKGTPALYCDGTAFDVNSVSDFLAEMHLAWPSHETNTEDIQFWEHEWKKHGRCSEALLKQTDYFRTALAFRKAFDIVGLLNQEGIYPNNDLYRPKMIKEAIKKHLNAVPEIDFTKNENSEYVLTDINVCVNQQATRFVDCPTDDATDDYRLKFVRLPSKMKFADPRTNSII | – | at a greatly lowered level | 0.12 ± 0.01 | 206.5 ± 11.2 | induce an increase in intracellular calcium level by activating LPA receptors in spite of co-existence with the ginsenosides
